{
  "source": "the DeepSol protein solubility set",
  "data": [
    {"test": "soluble on expression in E. coli; label from the status in PepcDB or PDB records", "values": [
      {"sequence": "GPGSMDGRNGSKRARSEPANGPNQSNVGTSGVEEPHVEEVPARDPELERQLDRLNIDDNLKESLRGLSPSTRGEVMNDIIRSETIERASSLMEQANLLSLIELRRLPELMEEGMSSQHYRADVDDDSELHEFGQALEDMQADGQSPSPQRGRPHGMLHTPGPLILEFLRAFAAGTHAAFADAAGVSEHLNILSELAAQRAMGVTEDVDNMSYEELLELEDKIGYVSRGVKPEDVQKCVKDVPTPHEGNCVVCQCEWSDNAETAPAVVELNRCKHVFHRTCIREWLLKNKKCPVCTQEVV", "soluble on expression in E. coli": "soluble"},
      {"sequence": "MAIKITPDEFSLLIQRLNKKWRVFAPSAEFRGGRFSDTDNIIYQRISGWRDLIWHEKSHMSPNTIIAPITETLFYFDKDTIQIAETDTSPIIIFARACDINAMSRLDYMYLSNGNNSDYSYQLLREHIRFVLIECEESFENCFCVSMGTNKTDCYSAAMRFSDEGALVSIRDPFIEAAIQGLGQEADYTPSFVSENRETVVTPDSVCHDPQKIRDILTHHPLWDAYDSRCISCGRCTTGCPTCTCYSVFDVAYDENPQRGERRRQWASCMVPGFSDMAGGHGFREKPGERLRYRALHKVNDYKARNGIEHMCVGCGRCDDRCPQYIKFSLIINKMTAAVRQALAEEA", "soluble on expression in E. coli": "not soluble"},
      {"sequence": "MKQRILIVGAGFAGMWSALSAVRQLDRQGRDDVEVAVLAPQPELRIRPRFYEPDVQRMAAPLGELFAAVGVRFVQGSAQRIDVAGKRVEYRDAEGTLAQLDYDRLVLAAGSGVWRPASVAGIDAAFDVDQLEDALRLEAHLHALRDLPDSPARNTVVVAGGGFTGIETATEMPARLRAILGEKAALRVIVVDRGAAIGASMGADLSGLIAEASAELGVEWCLGRSVAAVDAEGVTLDDGQRIEAKTVVWTVGVRASTLTGQIPGERDAQGRLHVDRNLKVLGLDDVYATGDVARAATDDLGNHALMTCQHAIALGRSAGNNVAADLLGVEPIPYSQVKYVTCLDLGGWGAVFTEGWDRQVRFVREEGKKIKTEINGVWIYPPAADRAVALAAADPLIPVVALEHHHHHH", "soluble on expression in E. coli": "soluble"},
      {"sequence": "MGSDKIHHHHHHMDKPFRRILLIKMRFHGDMLLTTPVISSLKKNYPDAKIDVLLYQDTIPILSENPEINALYGIKNKKAKASEKIANFFHLIKVLRANKYDLIVNLTDQWMVAILVRLLNARVKISQDYHHRQSAFWRKSFTHLVPLQGGNVVESNLSVLTPLGLDSLVKQTTMSYPPASWKRMRRELDHAGVGQNYVVIQPTARQIFKCWDNAKFSAVIDALHARGYEVVLTSGPDKDDLACVNEIAQGCQTPPVTALAGKVTFPELGALIDHAQLFIGVDSAPAHIAAAVNTPLISLFGATDHIFWRPWSNNMIQFWAGDYREMPTRDQRDRNEMYLSVIPAADVIAAVDKLLPSSTTGTSL", "soluble on expression in E. coli": "not soluble"},
      {"sequence": "ASEKVGMNLVTAQGVGQSIGTVVIDETEGGLKFTPHLKALPPGEHGFHIHANGSCQPAIKDGQAVAAEAAGGHLDPQNTGKHEGPEGQGHLGDLPVLVVNNDGIATEPVTAPRLKSLDEVKDKALMIHVGGDNMSDQPKPLGGGGTRYACGVIK", "soluble on expression in E. coli": "soluble"},
      {"sequence": "MEKLRIKGMSYTMCSGKFSIDKEMAETQHGTTVVKVKYEGAGAPCKVPIEIRDVNKEKVVGRIISSTPLAENTNSVTNIELEPPFGDSYIVIGVGNSALTLHWFRKGSSIGK", "soluble on expression in E. coli": "soluble"},
      {"sequence": "MGHHHHHHSHKGLIDEITKKNIQLKKEIQKLETELQEATKEFQIKEDIPETKMKFLSVETPENDSQLSNISCSFQVSSKVPYEIQKGQALITFEKEEVAQNVVSMSKHHVQIKDVNLEVTAKPVPLNSGVRFQVYVEVSKMKINVTEIPDTLREDQMRDKLELSFSKFRNGGGEVDRVDYDRQSGSAVITFVEIGVADKILKKKEYPLYINQTCHRVTVSPYTEIHLKKYQIFSGTSKRTVLLTGMEGIQMDEEIVEDLINIHFQRAKNGGGEVDVVKCSLGQPHIAYFEE", "soluble on expression in E. coli": "not soluble"},
      {"sequence": "MGSDKIHHHHHHMEDIVEALKLAVTNLPEDVALALKNAYEREDYEIAKYNLEIMLRAVKTSKYYYVPLCQDTGTPIFFVETDGTWNVKEIYETIAEAVKRATDEIPLRPNAICLLSGKVVGNVPEIHIEPGKRNRISILIKGGGSENCSALFPLTPGDWFEGVKKKIIDHIRSCGGKPCPPIIVGIGIASPAERAITLAKKSLFRKIGERHEKLGWLEEEILEEINFLDIGPMGLGGKTTALDVKIEVGERHPASFIVGIAIQCWAHRRAFIEEKEDGEVVIWQ", "soluble on expression in E. coli": "not soluble"},
      {"sequence": "MSLKITQIQAQNKNKNRRNVFVDGSYEFSCDMEIILKYKLKEGLEIDRTKLLQVIDQSKEEFAFRLALNYLSFKSRTSFEIYTYLLKKEYEEKIIEKVIEKLKYYRYVDDNQYVLNYIKTALAEGKKGKDRVQSDLINKKIPQDMIESHMHLFSCETNLEIAKELSNKYFKQNAHLPFNQFKNKLSQFLMRKGFNWEIINTCLNILEQDSEEGHHHHHH", "soluble on expression in E. coli": "soluble"},
      {"sequence": "MSLDAPYFSPRRLGHVNLIVRDTDASMRFYQDVVGFEEVYRVPAIGGGFLSNGNTHHDVGMVQSSGPSGKGRPPGLNHLAFELETEVALVEGYERSRQDGLAFERTLDHDIAHSAYCADPDGNSCELYADVVREWRTARTGEVTKPKPAWWPGKTPPNPHRNYHAEPQLRQVAHAAFHPLRTQHATLVVADLRESIAFYTRRIGLALQAQGDGYALLGGRCGRRDVALVQARGQLSPGYHHVGLEVADAGELLQAAQRWREQGGQVERLIEHPLRTAVYITDPDGLLLQFFVDHAADHAAWRHLDREQALWIVEGHHHHHH", "soluble on expression in E. coli": "not soluble"},
      {"sequence": "MISIPVAQQQKLPRLVLPRVYGFPPNRETLGGTAYLIVENDGNTLIDSPPWTDGSQHWLREQGGVKRLILTHRGAIARVRAIQDTFDCEVMIHAQEAYLLPQVTVTPFNHHLAIGETLEILWTPGHSPGSACVYWSCQGGVLFTGRHLLPTPTGELAPIKTATTFHWPRQLRSVEALKAFCRQKSLSYLCPGANMGFLRGTLAIANAQAVLQGLSVDNLLCDKFLEHHHHHH", "soluble on expression in E. coli": "not soluble"},
      {"sequence": "MGSDKIHHHHHHAERISFFYPPFGEFSLSVDSLETFAKVGKIDRDFSFYASRATPQQLAQLRDLLQQRFNLTPTLVSQVTYSPIGEQLVQQLGKLLLTESRQNGFYAIRASLILAAADREGLTVVNLLRKFPSNTVRVNFTEGLRIVDDLSQLLKKKDEVVASLQKEAIAQAANSTVDFSKQPDLRSPGKFRWLKKSLELNDISRSRRLPVDIYLPTTQNSEPTDQNSPSPPFPLIVISHGLASDRSTFVYLAEHLASYGFAVAVLEHPGSNAKRFQEYFAGLASPPEPEEFIDRPLDIKYLLDELQRLEKSDPSLHGKLNFQQVGAIGQSFGGYTVLTLAGAKINFEQLRQDCNPNNSSFNLSLLLQCEASKLPQKNYELKDDRIKAIMAINPIDSLVLGEGGVSQIKMPVMLVAGSQDIFAPPVFEQIRPFTWLSDPNKYLALIENATHFSAIAEPTPENDVLPVPPALLGPDRDAVYSYLNALSVAFMETHLLNRPEYRSYLQPSYATFISKEPLNLSILQSLSVAQFNQIWSASIPQSAKLSNPQPTPR", "soluble on expression in E. coli": "not soluble"},
      {"sequence": "MKSADLIIIGGGMVGLALAGLLKDSPCQIKIIEKSAPKTQKYYANRVSAINTASEKMLQQLGVFEHIPTDAYTDYQKIIVSEKDSFAKIEFDNNDLAIKQLGLTQLGLIIANSQLQQALWQQVSQQKNVEIILSTPKTIGISESGAFLTLENGEMLAGKLVVGADGAHSWLRNQINIPLISQDYQQTALVCCVETAEPHNNIARQIFGPDSILAFLPLADKNQCSIVWSLPPDQANKLTTCDEQQFNQALTIAFDYQLGLVKLQDSRKIYPLTARYARDFAQMRIALIGDAAHTIHPLAGLGVNLGFADAITLAEQIKLHLAAAHDIGEYRHLRYFERTRKTETIKLLAAMEGLKQLFSGNNPLKKLIRGIGLVGTNHFSAIKKRLIEQVVNILEHHHHHH", "soluble on expression in E. coli": "soluble"},
      {"sequence": "MRVYGRKILEEALRNNVPIKKVFFQKMKNPGSYFLSLVKEVEKRGIKYSFESEERLKNLSGTKKHQGVVFDIGEYRYSSVEEILEAKTPPLIVLLDQIQDPHNLGAIVRTSVGAGANGIIIPKDKSVKVTETVVKVSAGTVFRARIAVVTNLARTIEELKEKGVWTYASDIDGTPIYEEDFTFPTAFVFGNEGEGIRRLVREKCDRVVTIPMENDIDSLNVSVSVGVVLFEAVRQRRMKGAG", "soluble on expression in E. coli": "soluble"},
      {"sequence": "MQFNNKPLIGVVHLPPLPGSPGYKGELDEVIDRAISDAAKYQEAGFDAIILENYGDFPYSKTVGKETVSAFSVVANEVKREIALPLGINVLRNDCIAAYSIAYSIKADFIRVNVLTGVAFTDQGIVEGCARELAELRTRLPSRIDVLADVHVKHATHFSNFENALLDTIERGGADAVIVTGSRTGSEVDIQELITAKRISPVPVLVGSGVNPRNIKLFWRYSDGFIVGTWVKEGGRTINEVSIERATKLAKLVKSLREGLEHHHHHH", "soluble on expression in E. coli": "not soluble"}
    ]}
  ]
}
